Positions count from the first letter of the chain named.
Assays:
hCCR8 L5A = molecular target: T1, hCCR8 L5A (human, UniProt P51685 1-355); experiment: flow cytometry on transfected HEK 293 cells
T1 construct: alanine point mutant on transfected HEK 293 cells
Description: (§1) To epitope map fucosylated hu.Ab5.H13L1, the binding to alanine point mutations in human CCR8 was analyzed by flow cytometry.
Constructs encoding for individual alanine point mutations at positions 2-24 in hCCR8 with a C-terminal FLAG tag were generated. HEK 293 cells were transfected with constructs encoding for mutant hCCR8 or with a mock construct using transIT X2 (reagent:DNA=3:1) for 24 hrs, and surface stained with the huCCR8 antibody hu.Ab5.H13L1 (hIgG1), then fixed and permeabilized and followed by FITC-anti-Flag (Sigma F4049).

hCCR8 Y3A = molecular target: T2, hCCR8 Y3A (human, UniProt P51685 1-355); experiment: flow cytometry, HEK293 transfected with hCCR8 Y3A with C-terminal FLAG
T2 construct: alanine point mutant on transfected HEK 293 cells
Description: (§2) FIGS. 16A-16B depict the epitope maps for hu.Ab5.H13L1 (FIG. 16A) and hu.Ab4.H12L3 (FIG. 16B) mAbs.
as §1

I20A = molecular target: T3, I20A; experiment: flow cytometry, HEK293 transfected with hCCR8 I20A with C-terminal FLAG; sheet prints [huCCR8]=0.02 ug/ml
T3 construct: single alanine mutant of hCCR8; also called hCCR8 I20A
T3 receptor chain: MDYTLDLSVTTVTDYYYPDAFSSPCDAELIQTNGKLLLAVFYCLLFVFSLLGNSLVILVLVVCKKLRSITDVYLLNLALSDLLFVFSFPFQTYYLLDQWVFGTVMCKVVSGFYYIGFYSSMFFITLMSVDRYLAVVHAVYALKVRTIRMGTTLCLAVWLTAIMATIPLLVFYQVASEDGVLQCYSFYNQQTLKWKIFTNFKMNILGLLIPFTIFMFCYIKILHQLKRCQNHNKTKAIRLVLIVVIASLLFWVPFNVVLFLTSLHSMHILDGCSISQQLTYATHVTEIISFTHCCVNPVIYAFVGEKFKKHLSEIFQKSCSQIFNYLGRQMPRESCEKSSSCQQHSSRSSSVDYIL

S22A = molecular target: T4, S22A; experiment: flow cytometry, HEK293 transfected with hCCR8 S22A with C-terminal FLAG; sheet prints [huCCR8]=0.02 ug/ml
T4 construct: single alanine mutant of hCCR8; also called hCCR8 S22A
T4 receptor chain: T3 receptor chain with A20I, S22A

Y16A = molecular target: T5, Y16A; experiment: flow cytometry, HEK293 transfected with hCCR8 Y16A with C-terminal FLAG; sheet prints [huCCR8]=0.02 ug/ml
T5 construct: single alanine mutant of hCCR8; also called hCCR8 Y16A
T5 receptor chain: T3 receptor chain with Y16A, A20I

Y17A = molecular target: T6, Y17A; experiment: flow cytometry, HEK293 transfected with hCCR8 Y17A with C-terminal FLAG; sheet prints [huCCR8]=0.02 ug/ml
T6 construct: single alanine mutant of hCCR8; also called hCCR8 Y17A
T6 receptor chain: T3 receptor chain with Y17A, A20I
Description: as §2, §1

human CCR8 = molecular target: T7, human CCR8 (human, UniProt P51685 1-355); experiment: flow cytometry, CHO-huCCR8.Gna15 cells, relative to rb.Ab4
T7 construct: the assay field says which; also called hCCR8; huCCR8
Description: Evaluation of CCR8 binding of the humanized variants with a hIgG1 Fc involved screening by flow cytometry, and comparing the relative EC₅₀ and MFI on human CCR8 CHO cells to the parental rabbit antibodies. Specifically, stable CHO-huCCR8.Gna15 cells were stained with various concentrations (starting from 10 ug/ml or 66.66 nM, 1:4 serial dilution for total 8 concentration points) of Ab4 and Ab5 variants at 4° C. for 30 minutes, then washed twice with FACS buffer (PBS with 0.5% BSA and 0.2 mM EDTA) and followed by staining with AF647-anti-hIgG at 4° C. for 15 min. Cells were washed twice with FACS buffer, and re-suspended in FACS buffer with propidium iodide (0.5 ug/ml) and analyzed with iQue3 (Sartorius).

[1] = molecular target: T8, human CCR8.CCR5 chimera ECL2 (human, UniProt P51681 167-189); experiment: flow cytometry, 293 cells transfected with the CCR8.CCR5 chimera ECL2 with C-terminal FLAG
T8 construct: domain: ECL2; Flanking CCR8 ranges derived from the stated replaced range 172-193; on transfected 293 cells; also called ECL2 chimera
Description: To epitope map fucosylated hu.Ab4.H12L3, the binding to chimeric forms of human CCR8 was analyzed by flow cytometry.

B1: hu.Ab5.H13L1 (antibody, human IgG1, kappa)
heavy: not shown
light: DIQVTQSPSSLSASVGDRVTITCQASENIANALAWYQQKPGKPPKFLIYGASNLASGVPSRFSGSGSGTDFTFTISSLQPEDIATYYCQQAYYGNSFVEGTFGGGTKVEIKRTVAAPSVFIFPPSDEQLKSGTASVVCLLNNFYPREAKVQWKVDNALQSGNSQESVTEQDSKDSTYSLSSTLTLSKADYEKHKVYACEVTHQGLSSPVTKSFNRGEC
notes: fucosylated human IgG1; also called Ab5 variant
binding result (hCCR8 L5A): no binding
binding result (hCCR8 Y3A): no binding (tested: 0.02 ug/ml)
binding result (I20A): binds
binding result (S22A): binds
binding result (Y16A): binds
binding result (Y17A): binds

B2: hu.Ab4.H1L1 (antibody, human IgG1, kappa)
heavy: not shown
light: DYQMTQSPSSLSASVGDRVTITCQASQSISSYLSWYQQKPGKRPKLLIYKASTLASGVPSRFSGSGSGTDFTLTISSLQPEDFATYYCQQGYTSSNIDNIFGGGTKVEIKRTVAAPSVFIFPPSDEQLKSGTASVVCLLNNFYPREAKVQWKVDNALQSGNSQESVTEQDSKDSTYSLSSTLTLSKADYEKHKVYACEVTHQGLSSPVTKSFNRGEC
notes: also called hu.Ab4.H1Ll
Relative EC50 (human CCR8): 0.88 ratio
Relative MFI (human CCR8): 0.95 ratio

B3: hu.Ab4.H12L3 (antibody, human IgG1, kappa)
heavy: not shown
light: B2 light with R43A
notes: fucosylated human IgG1; also called huCCR8-Ab4.H12L3.hIgG1; Ab4 variant
binding result [1]: no binding
